From PMC2942077 (Biochemistry, 2010)
Changes are numbered by the printed parent chain.

What was measured:
Test in all cases: pull-down
[1] = target: T1, RP2 L188P disease-causing mutant, purified recombinant (human, UniProt O75695 1-350, L188P)
T1 sequence (looked up): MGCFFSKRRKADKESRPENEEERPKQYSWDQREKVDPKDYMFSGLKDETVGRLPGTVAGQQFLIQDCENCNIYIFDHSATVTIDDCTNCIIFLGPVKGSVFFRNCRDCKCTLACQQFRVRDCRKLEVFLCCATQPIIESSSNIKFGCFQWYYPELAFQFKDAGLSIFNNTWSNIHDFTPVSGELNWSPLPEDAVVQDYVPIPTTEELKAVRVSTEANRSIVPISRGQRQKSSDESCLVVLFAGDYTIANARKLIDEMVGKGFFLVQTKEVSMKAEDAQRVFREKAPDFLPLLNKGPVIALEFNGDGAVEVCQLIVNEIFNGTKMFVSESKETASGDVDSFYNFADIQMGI

[2] = target: T2, RP2 R282W disease-linked mutant, purified recombinant (human, UniProt O75695 1-350, R282W)
T2 sequence (looked up): T1 sequence (looked up) with P188L, R282W

[3] = target: T3, purified recombinant wild-type human RP2 (human, UniProt O75695 1-350)
T3 sequence (looked up): T1 sequence (looked up) with P188L

[4] = target: T4, RP2 R118H disease-linked mutant, purified recombinant (human, UniProt O75695 1-350, R118H)
T4 sequence (looked up): T1 sequence (looked up) with R118H, P188L

binding result [1]: binds
binding result [2]: binds
binding result [3]: binds
binding result [4]: binds
B1: GST fusion protein containing the N-terminal domain of NSF (domain or fragment, Chinese hamster, UniProt P18708 1-205, looked up)
chain: MAGRSMQAARCPTDELSLSNCAVVSEKDYQSGQHVIVRTSPNHKYIFTLRTHPSVVPGSVAFSLPQRKWAGLSIGQEIEVALYSFDKAKQCIGTMTIEIDFLQKKNIDSNPYDTDKMAAEFIQQFNNQAFSVGQQLVFSFNDKLFGLLVKDIEAMDPSILKGEPASGKRQKIEVGLVVGNSQVAFEKAENSSLNLIGKAKTKENR
